Experimental data as given in EP2133098A1 (Maxygen Holdings Ltd, dated 2009).

T1: human G-CSF receptor (human, UniProt Q99062 25-836)
T1 sequence (looked up): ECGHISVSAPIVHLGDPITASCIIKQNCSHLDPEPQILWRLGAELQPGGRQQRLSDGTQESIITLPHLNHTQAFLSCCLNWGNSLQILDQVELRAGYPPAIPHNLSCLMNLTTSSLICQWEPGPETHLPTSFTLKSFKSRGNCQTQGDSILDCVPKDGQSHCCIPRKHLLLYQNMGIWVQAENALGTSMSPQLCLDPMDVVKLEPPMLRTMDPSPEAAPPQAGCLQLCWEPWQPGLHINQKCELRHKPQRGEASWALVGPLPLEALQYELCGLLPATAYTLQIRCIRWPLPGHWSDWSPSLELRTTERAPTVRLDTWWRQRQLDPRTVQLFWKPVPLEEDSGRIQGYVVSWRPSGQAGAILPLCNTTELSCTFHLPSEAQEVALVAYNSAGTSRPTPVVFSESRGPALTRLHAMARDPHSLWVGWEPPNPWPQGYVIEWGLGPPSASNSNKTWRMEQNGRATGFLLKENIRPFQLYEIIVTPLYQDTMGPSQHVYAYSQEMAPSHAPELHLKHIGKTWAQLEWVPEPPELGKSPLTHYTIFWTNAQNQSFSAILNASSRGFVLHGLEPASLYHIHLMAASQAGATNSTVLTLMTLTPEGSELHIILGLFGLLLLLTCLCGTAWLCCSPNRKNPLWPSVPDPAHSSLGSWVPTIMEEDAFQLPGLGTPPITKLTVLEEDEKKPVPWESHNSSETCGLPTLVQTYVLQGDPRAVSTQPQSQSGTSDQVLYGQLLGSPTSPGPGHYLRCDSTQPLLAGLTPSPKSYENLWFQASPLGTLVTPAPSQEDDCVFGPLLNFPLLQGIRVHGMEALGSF


biological target: T1, human G-CSF receptor; assay: cell-based or functional assay

Row | Binder | EC50 (% of hG-CSF) conjugated to SPA-PEG 5000
1 | SPA-PEG 5000-conjugated hG-CSF K16R K34R K40R Q70K Q90K Q120K (ligand, SPA-PEG 5000 on the available PEGylation sites) TPLGPASSLPQSFLLRCLEQVRKIQGDGAALQERLCATYRLCHPEELVLLGHSLGIPWAPLSSCPSQALKLAGCLSQLHSGLFLYQGLLKALEGISPELGPTLDTLQLDVADFATTIWQKMEELGMAPALQPTQGAMPAFASAFQRRAGGVLVASHLQSFLEVSYRVLRHLAQP | 10 % of hG-CSF
2 | SPA-PEG 5000-conjugated hG-CSF K16R K34R K40R Q70K Q120K (ligand, SPA-PEG 5000 on the available PEGylation sites) TPLGPASSLPQSFLLRCLEQVRKIQGDGAALQERLCATYRLCHPEELVLLGHSLGIPWAPLSSCPSQALKLAGCLSQLHSGLFLYQGLLQALEGISPELGPTLDTLQLDVADFATTIWQKMEELGMAPALQPTQGAMPAFASAFQRRAGGVLVASHLQSFLEVSYRVLRHLAQP | 15 % of hG-CSF
3 | SPA-PEG 5000-conjugated hG-CSF K16R K34R K40R Q70K Q120K T133K (ligand, SPA-PEG 5000 on the available PEGylation sites) TPLGPASSLPQSFLLRCLEQVRKIQGDGAALQERLCATYRLCHPEELVLLGHSLGIPWAPLSSCPSQALKLAGCLSQLHSGLFLYQGLLQALEGISPELGPTLDTLQLDVADFATTIWQKMEELGMAPALQPKQGAMPAFASAFQRRAGGVLVASHLQSFLEVSYRVLRHLAQP | 5 % of hG-CSF
4 | SPA-PEG 5000-conjugated hG-CSF K16R K34R K40R Q70K Q90K T105K (ligand, SPA-PEG 5000 on the available PEGylation sites) TPLGPASSLPQSFLLRCLEQVRKIQGDGAALQERLCATYRLCHPEELVLLGHSLGIPWAPLSSCPSQALKLAGCLSQLHSGLFLYQGLLKALEGISPELGPTLDKLQLDVADFATTIWQQMEELGMAPALQPTQGAMPAFASAFQRRAGGVLVASHLQSFLEVSYRVLRHLAQP | 2 % of hG-CSF
5 | SPA-PEG 5000-conjugated hG-CSF K16R K34R K40R Q90K Q120K T133K (ligand, SPA-PEG 5000 on the available PEGylation sites) TPLGPASSLPQSFLLRCLEQVRKIQGDGAALQERLCATYRLCHPEELVLLGHSLGIPWAPLSSCPSQALQLAGCLSQLHSGLFLYQGLLKALEGISPELGPTLDTLQLDVADFATTIWQKMEELGMAPALQPKQGAMPAFASAFQRRAGGVLVASHLQSFLEVSYRVLRHLAQP | 5 % of hG-CSF

biological target: T1, human G-CSF receptor; assay: cell-based or functional assay; remark: another data set of the same source

Row | Binder | EC50, BaF3/hGCSF-R/pfos-lux luciferase assay | in vitro EC50 (% of non-conjugated hG-CSF (Neupogen))
6 | non-conjugated hG-CSF (Neupogen) (ligand) TPLGPASSLPQSFLLKCLEQVRKIQGDGAALQEKLCATYKLCHPEELVLLGHSLGIPWAPLSSCPSQALQLAGCLSQLHSGLFLYQGLLQALEGISPELGPTLDTLQLDVADFATTIWQQMEELGMAPALQPTQGAMPAFASAFQRRAGGVLVASHLQSFLEVSYRVLRHLAQP | 0.03 nM | 
7 | SPA-PEG 12000-conjugated hG-CSF K16R K34R K40R (ligand, SPA-PEG 12000; mainly 2 and 3 PEG groups attached) TPLGPASSLPQSFLLRCLEQVRKIQGDGAALQERLCATYRLCHPEELVLLGHSLGIPWAPLSSCPSQALQLAGCLSQLHSGLFLYQGLLQALEGISPELGPTLDTLQLDVADFATTIWQQMEELGMAPALQPTQGAMPAFASAFQRRAGGVLVASHLQSFLEVSYRVLRHLAQP |  | 10 % of non-conjugated hG-CSF (Neupogen)
8 | SPA-PEG 20000-conjugated hG-CSF K16R K34R K40R (ligand, SPA-PEG 20000) TPLGPASSLPQSFLLRCLEQVRKIQGDGAALQERLCATYRLCHPEELVLLGHSLGIPWAPLSSCPSQALQLAGCLSQLHSGLFLYQGLLQALEGISPELGPTLDTLQLDVADFATTIWQQMEELGMAPALQPTQGAMPAFASAFQRRAGGVLVASHLQSFLEVSYRVLRHLAQP |  | 1 % of non-conjugated hG-CSF (Neupogen)
9 | SPA-PEG 5000-conjugated hG-CSF K16R K34R K40R (ligand, SPA-PEG 5000 on the available PEGylation sites) TPLGPASSLPQSFLLRCLEQVRKIQGDGAALQERLCATYRLCHPEELVLLGHSLGIPWAPLSSCPSQALQLAGCLSQLHSGLFLYQGLLQALEGISPELGPTLDTLQLDVADFATTIWQQMEELGMAPALQPTQGAMPAFASAFQRRAGGVLVASHLQSFLEVSYRVLRHLAQP |  | 35 % of non-conjugated hG-CSF (Neupogen)
